From the supplement of paper PMC9170038 come the findings set out here.

Data set [1] has as its system MS2 coat protein. The data set is described as follows: apparent KD of MS2 coat protein, switch ON state; designed switch direction (-1 OFF switch, 1 ON switch): -1; higher = weaker reporter binding. The following applies: FMN input: 0 or 200 uM; Eterna round: R93 (includes R88 designs). The method in brief:
(§1)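 Apparent KD is reported per design as the median of normalised binding-curve fits across its clusters. The RNA switches were made by on-chip transcription from Illumina sequencing clusters. SNAP-549-labelled MS2 coat protein was then added in twofold steps (0.7 or 1.5 nM to 3 µM; 0.8–1.5 h to 10–20 min per step) in 100 mM Tris-HCl pH 7.5, 80 mM KCl, 4 mM MgCl2, without or with constant ligand.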

For data set [2], the system named is MS2 coat protein. The data set can be described thus: apparent KD of MS2 coat protein, switch OFF state (with FMN for OFF switches, without FMN for ON switches); designed switch direction (-1 OFF switch, 1 ON switch): -1; higher = weaker reporter binding. The following applies: FMN input: 0 or 200 uM; Eterna round: R93 (includes R88 designs). The method in brief: as §1

“CUCAAGUGAGGAUAUCAGUAGUAAAAAAAUAAAAUUACUACUGAGAAGGCACAUGAGGAUCACCCAUGUGCAAA [EX4 336: Super Stable 36]”: the “apparent KD of MS2 coat protein” value was 0.0196 µM in the data set on MS2 coat protein [1] and 0.017 µM in the data set on MS2 coat protein [2].
Consider “CUCAAGUGAGGAUAUUAAAGAAAAGAAGAGAAAGAAAAGAAUAAGAAGGCACAUGAGGAUCACCCAUGUAAGAA [EteRNA is fun!]”, for which the “apparent KD of MS2 coat protein” value in the data set with MS2 coat protein [1] was found to be 0.0264 µM; in the data set on MS2 coat protein [2] it was 0.033 µM.
For “CUCAUGUCAGGAUAUCAGUAGUAAAAAAAUAAAAUUACUACUGAGAAGGGACAUGAGGAUCACCCAUGUAAAAA [EX4 363: Super Stable 63]”, the “apparent KD of MS2 coat protein” value turned out to be 0.0161 µM in the data set on MS2 coat protein [1] and 0.0232 µM with MS2 coat protein [2].
With “CUCAUGUUAGGAUAUUAAUGAAAUGAAGUGAAAGAAAAGAAUAAGAAGGAACAUGAGGAUCACCCAUGUUAGAA [EteRNA is fun!]”, the “apparent KD of MS2 coat protein” value stood at 0.0693 µM in the data set with MS2 coat protein [1] and 0.0252 µM in the data set on MS2 coat protein [2].
For the sequence “CUGGAGUCAGGAUAUACGAACAUGUCGCCAGAUGUCAAGGUACAUGAGGAUCACCCAUGUAGAAGGGAGGAGAA [salish99-Ex2-33]”, the “apparent KD of MS2 coat protein” value with MS2 coat protein [1] was 0.0952 µM; with MS2 coat protein [2], 0.0848 µM.
For the sequence “CUUAUGUGAGGAUAUCAGUAGUAAAAAAAAAAAAUUACUACUGAGAAGGCACAUGAGGAUCACCCAUGUGCAUU [EX4 322: Super Stable 22]”, the “apparent KD of MS2 coat protein” value in the data set with MS2 coat protein [1] came to 0.0303 µM; with MS2 coat protein [2], 0.0388 µM.
For “GAAAACAGAGGAUAUACGAAAUUGACACGAAAAGUGCAGGGACAUGAGGAUCACCCAUGUAGAAGGCUGAAGAA [Meechl MS2... 60% 1]”, in that order: 0.0277 µM and 0.0482 µM.
In the case of “GAAAAGGCAGGAUAUGCAGGAUAUAGAAGGAGGAUAUAGAGACAUGAGGAUCACCCAUGUAGAAGGGCCAAAAG [salish99-ex2-11]”, the “apparent KD of MS2 coat protein” value in the data set on MS2 coat protein [1] was found to be 0.0426 µM; in the data set on MS2 coat protein [2], 0.0323 µM.
In the case of “GAAAAGUCAGGAUAUGCGAAGGCGUCUGAUAGACGAGGCUAGCAGAAGGGACAUGAGGAUCACCCAUGUGAAAG [Mat - Exclusion 4 - Eli mod - D87]”, the figures for the “apparent KD of MS2 coat protein” value in the data set on MS2 coat protein [1] and in the data set with MS2 coat protein [2] were 0.0546 µM and 0.128 µM, respectively.
As to “GAAAAGUCAGGAUAUGUACAAAAUAAAAUAAAAAUAAAAGUACAGAAGGGACAUGAGGAUCACCCAUGUAAAAA [Mat - Exclusion 4 - Mayanna - D119]”, the figures for the “apparent KD of MS2 coat protein” value with MS2 coat protein [1] and in the data set on MS2 coat protein [2] were 0.0473 µM and 0.0498 µM, respectively.
On to “GAAAAGUGAGGAUAUACAUGAGGAUCACCCAUGUGUAUAAAAAAUUACACAAAAGAAAGUAGAAGGCACUAAAG [Mat - Exclusion 3 - Mayanna mod - D113]”, for which the “apparent KD of MS2 coat protein” value in the data set with MS2 coat protein [1] amounted to 0.0177 µM; with MS2 coat protein [2], 0.0265 µM.
On to “GAAAGUGGAGGAUAUACAUGAGGAUCACCCAUGUGUAAAAAUAAAUACACAAAAGAAAGUAGAAGGCCACAAAG [Mat - Exclusion 3 - Mayanna mod - D118]”, for which the “apparent KD of MS2 coat protein” value in the data set with MS2 coat protein [1] turned out to be 0.0306 µM; in the data set with MS2 coat protein [2] it was 0.125 µM.
Consider “GAAGAACAUGAGGAUCACCCAUGUCAGGAUAUGCGCAAGGGAAUAAUAACUUGCGGAAGCAGAAGGGACAAGAA [Ex 1 May 50]”, for which the “apparent KD of MS2 coat protein” value in the data set with MS2 coat protein [1] stood at 0.0189 µM; in the data set with MS2 coat protein [2], 0.0359 µM.
For “GAAUGACUAGGAUAUACAUGAGGAUCACCCAUGUGUUAAAAUAAAUACACAAAAGAAAGUAGAAGGAGUCAAAG [Mat - Exclusion 3 - Mayanna mod - D126]”, in that order: 0.021 µM and 0.0503 µM.
Turning to “GAUAGGCGAGGAUAUACAUGAGGAUCACCCAUGUAAGUAAGCCUGGCUGAAACUGAAUGUAGAAGGCGCAAAUU [Mat - Exclusion 3 - Neo mod - D70]”, the “apparent KD of MS2 coat protein” value stood at 0.0178 µM with MS2 coat protein [1] and 0.0677 µM in the data set with MS2 coat protein [2].
For “GCUGGCGAAGGAUAUACAUGAGGAUCACCCAUGUGAGAGAAAAAAGUGAGAAAGAAAAGUAGAAGGUCGUUAGG [salish99-ex3-96]”, in that order: 0.0317 µM and 0.0704 µM.
